Measured values taken from paper PMC9482650, “Quantitative fragmentomics allow affinity mapping of interactomes” (Nature Communications, 2022).

Columns and labels:
Test in all cases: holdup assay
Set-up in all cases: key: below the threshold = too weak to quantify, mostly under pKd 3.1 to 4
TIAM2, Q8IVF5 = target: T1, TIAM2, Q8IVF5
T1 sequence (Q8IVF5 885-986, limits assumed, looked up): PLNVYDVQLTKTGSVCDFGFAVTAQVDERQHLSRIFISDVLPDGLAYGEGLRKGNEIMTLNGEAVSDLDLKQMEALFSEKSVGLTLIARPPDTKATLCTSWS

DLG5_1, Q8TDM6 = target: DLG5_1, Q8TDM6
Chain of DLG5_1, Q8TDM6 (Q8TDM6 617-713): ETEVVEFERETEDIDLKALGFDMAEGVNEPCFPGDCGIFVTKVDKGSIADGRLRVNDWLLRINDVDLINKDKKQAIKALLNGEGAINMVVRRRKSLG

DFNB31_1, Q9P202 = target: T2, DFNB31_1, Q9P202
T2 sequence (Q9P202 135-233, limits assumed, looked up): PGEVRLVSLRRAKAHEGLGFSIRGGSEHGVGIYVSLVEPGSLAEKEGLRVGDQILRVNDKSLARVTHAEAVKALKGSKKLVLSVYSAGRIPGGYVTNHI

PCLO, Q9Y6V0 = target: T3, PCLO, Q9Y6V0
T3 sequence (Q9Y6V0 4491-4600, limits assumed, looked up): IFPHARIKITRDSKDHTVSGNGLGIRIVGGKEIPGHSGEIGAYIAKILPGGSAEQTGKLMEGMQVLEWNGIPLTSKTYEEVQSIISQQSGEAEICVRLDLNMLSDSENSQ

PTPN13_1, Q12923 = target: T4, PTPN13_1, Q12923
T4 sequence (Q12923 1088-1188, limits assumed, looked up): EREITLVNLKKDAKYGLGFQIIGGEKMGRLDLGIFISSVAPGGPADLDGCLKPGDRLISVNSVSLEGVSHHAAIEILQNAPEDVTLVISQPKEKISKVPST

FRMPD4, Q14CM0 = target: FRMPD4, Q14CM0
Chain of FRMPD4, Q14CM0 (Q14CM0 67-160): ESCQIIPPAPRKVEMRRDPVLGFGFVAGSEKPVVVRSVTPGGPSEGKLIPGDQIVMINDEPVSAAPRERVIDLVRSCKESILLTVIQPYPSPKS

FRMPD1, Q5SYB0 = target: T5, FRMPD1, Q5SYB0
T5 sequence (Q5SYB0 52-145, limits assumed, looked up): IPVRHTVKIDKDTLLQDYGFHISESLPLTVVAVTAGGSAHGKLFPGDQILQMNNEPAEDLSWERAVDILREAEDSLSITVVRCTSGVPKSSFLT

PDZRN3_1, Q9UPQ7 = target: T6, PDZRN3_1, Q9UPQ7
T6 sequence (Q9UPQ7 244-349, limits assumed, looked up): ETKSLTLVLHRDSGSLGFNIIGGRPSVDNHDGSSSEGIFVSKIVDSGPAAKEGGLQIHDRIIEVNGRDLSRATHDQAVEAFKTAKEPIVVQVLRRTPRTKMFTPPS

GRIP1_2, Q9Y3R0 = target: T7, GRIP1_2, Q9Y3R0
T7 sequence (Q9Y3R0 145-248, limits assumed, looked up): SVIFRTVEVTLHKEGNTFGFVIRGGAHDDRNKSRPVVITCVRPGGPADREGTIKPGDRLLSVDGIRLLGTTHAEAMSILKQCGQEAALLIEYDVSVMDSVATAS

PDZD2_2, O15018 = target: T8, PDZD2_2, O15018
T8 sequence (O15018 329-429, limits assumed, looked up): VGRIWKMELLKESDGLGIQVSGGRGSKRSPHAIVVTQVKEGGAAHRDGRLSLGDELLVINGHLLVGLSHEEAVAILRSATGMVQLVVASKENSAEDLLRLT

SNTG1, Q9NSN8 = target: T9, SNTG1, Q9NSN8
T9 sequence (Q9NSN8 52-150, limits assumed, looked up): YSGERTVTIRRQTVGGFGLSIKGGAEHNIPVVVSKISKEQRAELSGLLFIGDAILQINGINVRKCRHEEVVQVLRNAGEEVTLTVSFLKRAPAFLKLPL

CASK, O14936 = target: CASK, O14936
Chain of CASK, O14936 (O14936 487-570): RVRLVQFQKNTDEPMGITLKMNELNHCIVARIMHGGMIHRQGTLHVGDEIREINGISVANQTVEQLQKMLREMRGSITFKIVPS

MAGI1_2, Q96QZ7 = target: MAGI1_2, Q96QZ7
Chain of MAGI1_2, Q96QZ7 (Q96QZ7 456-580): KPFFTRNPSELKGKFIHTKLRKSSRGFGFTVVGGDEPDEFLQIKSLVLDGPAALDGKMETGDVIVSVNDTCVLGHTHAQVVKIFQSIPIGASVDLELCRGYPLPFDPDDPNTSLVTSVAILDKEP

DFNB31_2, Q9P202 = target: T10, DFNB31_2, Q9P202
T10 sequence (Q9P202 274-371, limits assumed, looked up): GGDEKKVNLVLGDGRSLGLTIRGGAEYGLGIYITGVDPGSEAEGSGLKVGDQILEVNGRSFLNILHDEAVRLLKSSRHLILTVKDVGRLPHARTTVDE

LRRC7, Q96NW7 = target: T11, LRRC7, Q96NW7
T11 sequence (Q96NW7 1440-1537, limits assumed, looked up): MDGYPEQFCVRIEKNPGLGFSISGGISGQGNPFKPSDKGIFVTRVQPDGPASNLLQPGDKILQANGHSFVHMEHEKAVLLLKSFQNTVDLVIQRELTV

FRMPD2_3, Q68DX3 = target: FRMPD2_3, Q68DX3
Chain of FRMPD2_3, Q68DX3 (Q68DX3 1073-1166): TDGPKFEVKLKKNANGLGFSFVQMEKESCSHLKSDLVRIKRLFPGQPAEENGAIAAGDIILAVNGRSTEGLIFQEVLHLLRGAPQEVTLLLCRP

MPP2, Q14168 = target: T12, MPP2, Q14168
T12 sequence (Q14168 180-250, limits assumed, looked up): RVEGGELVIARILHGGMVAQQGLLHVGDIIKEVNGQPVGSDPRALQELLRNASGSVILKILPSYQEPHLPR

TX1BP3, O14907 = target: T13, TX1BP3, O14907
T13 sequence (O14907 10-122, limits assumed, looked up): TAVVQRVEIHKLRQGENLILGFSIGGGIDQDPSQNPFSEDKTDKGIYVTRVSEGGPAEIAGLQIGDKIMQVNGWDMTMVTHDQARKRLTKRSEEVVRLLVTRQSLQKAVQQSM

GRIP2_6, Q9C0E4 = target: GRIP2_6, Q9C0E4
Chain of GRIP2_6, Q9C0E4 (Q9C0E4 648-740): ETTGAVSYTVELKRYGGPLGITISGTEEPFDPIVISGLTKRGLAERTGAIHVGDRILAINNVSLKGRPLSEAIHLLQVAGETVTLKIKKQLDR

Inadl_3, Q8NI35 = target: Inadl_3, Q8NI35
Chain of Inadl_3, Q8NI35 (Q8NI35 359-469): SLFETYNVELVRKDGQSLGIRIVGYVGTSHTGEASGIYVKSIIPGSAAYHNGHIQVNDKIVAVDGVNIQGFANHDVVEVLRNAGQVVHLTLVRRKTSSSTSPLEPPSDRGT

SNX27, Q96L92 = target: SNX27, Q96L92
GIPC2, Q8TF65 = target: GIPC2, Q8TF65
Chain of GIPC2, Q8TF65 (Q8TF65 112-203): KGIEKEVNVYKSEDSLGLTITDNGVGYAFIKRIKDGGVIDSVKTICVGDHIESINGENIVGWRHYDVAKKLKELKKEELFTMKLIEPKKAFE

SYNJ2BP, P57105 = target: T14, SYNJ2BP, P57105
T14 sequence (P57105 8-110, limits assumed, looked up): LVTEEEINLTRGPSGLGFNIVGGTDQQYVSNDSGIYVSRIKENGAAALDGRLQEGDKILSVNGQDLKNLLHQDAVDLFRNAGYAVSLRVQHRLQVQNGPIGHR

[1] = modified: phospho on T at position -2 from the C-terminal residue
[2] = plain residues with an end cap or a label only (N-terminal biotin on a linker: ado-ado)
[3] = modified: phospho on T at position -1 from the C-terminal residue

Binder: RRVRKLPSTTL [RPS6KA1_-2P, Q15418]
- pKd (TIAM2, Q8IVF5; [1]): below the threshold
- pKd (DLG5_1, Q8TDM6; [1]): below the threshold
- pKd (DFNB31_1, Q9P202; [1]): below the threshold
- pKd (PCLO, Q9Y6V0; [1]): below the threshold
- pKd (PTPN13_1, Q12923; [1]): below the threshold
- pKd (FRMPD4, Q14CM0; [1]): 3.48
- pKd (FRMPD1, Q5SYB0; [1]): below the threshold
- pKd (PDZRN3_1, Q9UPQ7; [1]): below the threshold
- pKd (GRIP1_2, Q9Y3R0; [1]): 3.52
- pKd (PDZD2_2, O15018; [1]): below the threshold
- pKd (SNTG1, Q9NSN8; [1]): below the threshold
- pKd (CASK, O14936; [1]): below the threshold
- pKd (MAGI1_2, Q96QZ7; [1]): below the threshold
- pKd (DFNB31_2, Q9P202; [1]): below the threshold
- pKd (LRRC7, Q96NW7; [1]): below the threshold
- pKd (FRMPD2_3, Q68DX3; [1]): below the threshold
- pKd (MPP2, Q14168; [1]): below the threshold
- pKd (TX1BP3, O14907; [1]): below the threshold
- pKd (GRIP2_6, Q9C0E4; [1]): below the threshold
- pKd (Inadl_3, Q8NI35; [1]): below the threshold
- pKd (SNX27, Q96L92; [1]): below the threshold
- pKd (GIPC2, Q8TF65; [1]): below the threshold
- pKd (SYNJ2BP, P57105; [1]): below the threshold

Binder: LEPAVRSSEL [SH2D3C, Q8N5H7]
- pKd (TIAM2, Q8IVF5; [2]): below the threshold
- pKd (DLG5_1, Q8TDM6; [2]): below the threshold
- pKd (DFNB31_1, Q9P202; [2]): below the threshold
- pKd (PCLO, Q9Y6V0; [2]): below the threshold
- pKd (PTPN13_1, Q12923; [2]): below the threshold
- pKd (FRMPD4, Q14CM0; [2]): below the threshold
- pKd (FRMPD1, Q5SYB0; [2]): below the threshold
- pKd (PDZRN3_1, Q9UPQ7; [2]): 4.13
- pKd (GRIP1_2, Q9Y3R0; [2]): below the threshold
- pKd (PDZD2_2, O15018; [2]): 3.97
- pKd (SNTG1, Q9NSN8; [2]): below the threshold
- pKd (CASK, O14936; [2]): below the threshold
- pKd (MAGI1_2, Q96QZ7; [2]): below the threshold
- pKd (DFNB31_2, Q9P202; [2]): below the threshold
- pKd (LRRC7, Q96NW7; [2]): below the threshold
- pKd (FRMPD2_3, Q68DX3; [2]): below the threshold
- pKd (MPP2, Q14168; [2]): below the threshold
- pKd (TX1BP3, O14907; [2]): 3.86
- pKd (GRIP2_6, Q9C0E4; [2]): below the threshold
- pKd (Inadl_3, Q8NI35; [2]): below the threshold
- pKd (SNX27, Q96L92; [2]): 4.68
- pKd (GIPC2, Q8TF65; [2]): below the threshold
- pKd (SYNJ2BP, P57105; [2]): 4.44

Binder: RRVRKLPSTTL [RPS6KA1_-1P, Q15418]
- pKd (TIAM2, Q8IVF5; [3]): 3.41
- pKd (DLG5_1, Q8TDM6; [3]): below the threshold
- pKd (DFNB31_1, Q9P202; [3]): 3.6
- pKd (PCLO, Q9Y6V0; [3]): below the threshold
- pKd (PTPN13_1, Q12923; [3]): 3.4
- pKd (FRMPD4, Q14CM0; [3]): 3.62
- pKd (FRMPD1, Q5SYB0; [3]): below the threshold
- pKd (PDZRN3_1, Q9UPQ7; [3]): 4.26
- pKd (GRIP1_2, Q9Y3R0; [3]): below the threshold
- pKd (PDZD2_2, O15018; [3]): 4.04
- pKd (SNTG1, Q9NSN8; [3]): 3.73
- pKd (CASK, O14936; [3]): below the threshold
- pKd (MAGI1_2, Q96QZ7; [3]): 4.32
- pKd (DFNB31_2, Q9P202; [3]): below the threshold
- pKd (LRRC7, Q96NW7; [3]): 3.47
- pKd (FRMPD2_3, Q68DX3; [3]): below the threshold
- pKd (MPP2, Q14168; [3]): below the threshold
- pKd (TX1BP3, O14907; [3]): 3.87
- pKd (GRIP2_6, Q9C0E4; [3]): below the threshold
- pKd (Inadl_3, Q8NI35; [3]): 3.76
- pKd (SNX27, Q96L92; [3]): 3.92
- pKd (GIPC2, Q8TF65; [3]): 3.55
- pKd (SYNJ2BP, P57105; [3]): 4.48

Binder: GQSVDLVFPV [AKIP1, Q9NQ31]
- pKd (TIAM2, Q8IVF5; [2]): below the threshold
- pKd (DLG5_1, Q8TDM6; [2]): 3.48
- pKd (DFNB31_1, Q9P202; [2]): below the threshold
- pKd (PCLO, Q9Y6V0; [2]): below the threshold
- pKd (PTPN13_1, Q12923; [2]): below the threshold
- pKd (FRMPD4, Q14CM0; [2]): 3.93
- pKd (FRMPD1, Q5SYB0; [2]): below the threshold
- pKd (PDZRN3_1, Q9UPQ7; [2]): 3.47
- pKd (GRIP1_2, Q9Y3R0; [2]): below the threshold
- pKd (PDZD2_2, O15018; [2]): below the threshold
- pKd (SNTG1, Q9NSN8; [2]): below the threshold
- pKd (CASK, O14936; [2]): below the threshold
- pKd (MAGI1_2, Q96QZ7; [2]): below the threshold
- pKd (DFNB31_2, Q9P202; [2]): below the threshold
- pKd (LRRC7, Q96NW7; [2]): below the threshold
- pKd (FRMPD2_3, Q68DX3; [2]): below the threshold
- pKd (MPP2, Q14168; [2]): below the threshold
- pKd (TX1BP3, O14907; [2]): below the threshold
- pKd (GRIP2_6, Q9C0E4; [2]): below the threshold
- pKd (Inadl_3, Q8NI35; [2]): below the threshold
- pKd (SNX27, Q96L92; [2]): 3.84
- pKd (GIPC2, Q8TF65; [2]): below the threshold
- pKd (SYNJ2BP, P57105; [2]): below the threshold
